Results reported in patent US20090209453A1 (UNIVERSITY OF MEDICINE AND DENTISTRY OF NEW JERSEY, published 2009).

Legend:
rat LH receptor [1] = target: T1, rat LH receptor (rat, UniProt P16235 27-700); experiment: 125I-hCG competition on rat LH receptors
T1 construct: whole, on cells; CHO cells engineered to (over)express the rat LH receptor; also called rat lutropin receptor

rat LH receptor [2] = target: T1, rat LH receptor; experiment: competition with radioiodinated hCG for rat LH receptors

T1 sequence (P16235 27-700): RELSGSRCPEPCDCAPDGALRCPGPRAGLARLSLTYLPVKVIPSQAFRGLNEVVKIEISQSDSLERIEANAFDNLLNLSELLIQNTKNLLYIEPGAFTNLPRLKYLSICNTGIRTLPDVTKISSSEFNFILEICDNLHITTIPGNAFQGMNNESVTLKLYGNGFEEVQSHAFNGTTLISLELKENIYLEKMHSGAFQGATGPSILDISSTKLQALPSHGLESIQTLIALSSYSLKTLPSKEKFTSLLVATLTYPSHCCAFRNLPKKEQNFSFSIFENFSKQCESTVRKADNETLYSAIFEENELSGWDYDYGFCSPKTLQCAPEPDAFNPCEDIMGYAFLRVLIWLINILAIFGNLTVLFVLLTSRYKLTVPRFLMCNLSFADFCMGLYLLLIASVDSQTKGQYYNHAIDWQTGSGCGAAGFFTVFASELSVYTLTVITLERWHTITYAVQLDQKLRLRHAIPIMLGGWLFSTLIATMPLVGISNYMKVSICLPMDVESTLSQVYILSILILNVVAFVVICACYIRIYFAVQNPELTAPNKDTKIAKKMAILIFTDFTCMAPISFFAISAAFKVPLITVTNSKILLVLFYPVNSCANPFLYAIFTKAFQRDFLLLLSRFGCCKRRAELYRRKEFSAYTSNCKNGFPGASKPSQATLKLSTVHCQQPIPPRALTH

binding result (rat LH receptor [1]) | binding result (rat LH receptor [2]) | Binder
binds |  | pMB2472+pMB2673 heterodimer (crosslink α86-β108) (ligand, Intersubunit disulfide between alpha Cys86 and beta Cys108 (the beta C-terminus). N-linked glycans remain, except at alpha position 52 (N52D). Beta Cys26 is free., The text says that pMB1244 or pMB2472 was the α-subunit construct; also called pMB2472 and pMB2673) alpha: not shown beta: SKEPLRPRCRPINATLAVEKEGCPVCITVNTTICAGYCPTMTRVLQGVLPALPQVVCNYRDVRFESIRLPGCPRGVNPVVSYAVALSCQCALCRRSTTDCGGPKDHPC
 | binds | pRM917+pMB2545 crosslinked heterodimer (ligand, Potential intersubunit disulfides α5-β8 and α86-β102; N-linked glycans on both subunits (none at α52)., Potential disulfides α5-β8 and α86-β102; also called pRM917 and pMB2545; copies: 1 + 1) alpha: not shown beta: SRPCCRPINATLAVEKEGCPVAITVNTTICAGYCPTMTRVLQGVLPALPQVVCNYRDVRFESIRLPGCPRGVNPVVSYAVALSCQCALCRRSTTDCGC
binds |  | pMB2472+pMB2672 heterodimer (crosslink α86-β106) (ligand, Intersubunit disulfide between alpha Cys86 and beta Cys106 (the beta C-terminus). N-linked glycans remain, except at alpha position 52 (N52D). Beta Cys26 is free., The text says that pMB1244 or pMB2472 was the α-subunit construct; also called pMB2472 and pMB2672) alpha: not shown beta: SKEPLRPRCRPINATLAVEKEGCPVCITVNTTICAGYCPTMTRVLQGVLPALPQVVCNYRDVRFESIRLPGCPRGVNPVVSYAVALSCQCALCRRSTTDCGGPKDC
